Consider 4 molecules from publication doi:10.1101/452482 (bioRxiv, 2018).

Read-outs that look alike come from different tables or passages of the source. Ends that are not written are not given here. fluorescein = fluorescein label at the N-terminus of the peptide

For test [1], the target named is N-CoRNID, nuclear receptor interaction domain of N-CoR (Gln2059 to Glu2325) (mouse) (UniProt Q60974). Put plainly: AUC + other: RPLC-UV/MS.
Test [2] concerns the target fluorescent peptide CoRNR1 of N-CoR. Put plainly: fluorescence polarisation. A general note: Fluorescence polarisation rises when a labelled molecule tumbles more slowly, as on binding a larger partner.
The target of test [3] is fluorescent peptide CoRNR2 of N-CoR. Put plainly: fluorescence polarisation.
The target in test [4] is N-CoRNID labelled with Atto647N (mouse) (UniProt Q60974). Put plainly: MST.
N-CoRNID labelled with Atto647N (mouse), sequence (Q60974 2059-2325): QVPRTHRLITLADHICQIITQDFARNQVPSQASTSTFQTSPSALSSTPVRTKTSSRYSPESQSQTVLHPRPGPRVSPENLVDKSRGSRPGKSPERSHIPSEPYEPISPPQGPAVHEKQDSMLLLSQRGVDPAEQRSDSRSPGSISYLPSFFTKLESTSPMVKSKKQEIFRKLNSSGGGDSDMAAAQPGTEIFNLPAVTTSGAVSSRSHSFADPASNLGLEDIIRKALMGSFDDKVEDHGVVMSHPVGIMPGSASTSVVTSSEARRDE
Test [5] has the same target. Put plainly: MST. This is another data set of the same source.
Test [6] concerns the target N-CoRNID, nuclear receptor interaction domain of N-CoR (Gln2059 to Glu2325) (mouse) (UniProt Q60974). Put plainly: SAXS.
In test [7] the target is T1, RXR (RXRα ligand-binding domain) (mouse, UniProt P28700 227-467).
T1 sequence (looked up): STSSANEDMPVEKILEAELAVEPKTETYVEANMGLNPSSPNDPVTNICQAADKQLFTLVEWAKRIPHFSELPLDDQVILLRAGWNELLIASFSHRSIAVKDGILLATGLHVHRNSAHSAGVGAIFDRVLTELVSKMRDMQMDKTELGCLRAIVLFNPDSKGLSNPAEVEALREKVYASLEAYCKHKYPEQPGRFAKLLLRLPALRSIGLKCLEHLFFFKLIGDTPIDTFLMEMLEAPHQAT
Put plainly: AUC + other: RPLC-UV/MS.

In test [8] the target is T1, RXR (RXRα ligand-binding domain). Put plainly: fluorescence polarisation.

N-CoRNID, nuclear receptor interaction domain of N-CoR (Gln2059 to Glu2325) (mouse), sequence (Q60974 2059-2325): as the sequence (Q60974 2059-2325) above

For “RXR/RAR heterodimer (mRXRα/hRARα), ligand-binding domains (from UniProt P28700 1-467; P10276 1-462) (complex)”, the stoichiometry N (in general, a count of units in the complex or per binding partner) in test [1] was found to be 1. Further, the equilibrium dissociation constant (Kd) – broadly, the free concentration of one partner at which half of the binding sites on the other are occupied at equilibrium, for simple one-to-one binding – turned out to be 1.68 µM in test [2], 1.47 µM in test [3], 8.6 µM in test [4] and 0.21 µM in test [5]. In test [6], this molecule registered a population of unbound species of 51%.

Molecule “RXR/RARI396E heterodimer (mRXRα/hRARαI396E) (from UniProt P28700 1-467; P10276 1-462) (complex)” showed a Kd in test [5] of 4.42 µM. This counts as single-digit micromolar.

B1: RAR (RARα ligand-binding domain) (domain or fragment, human, UniProt P10276 176-421, looked up)
chain: ESYTLTPEVGELIEKVRKAHQETFPALCQLGKYTTNNSSEQRVSLDIDLWDKFSELSTKCIIKTVEFAKQLPGFTTLTIADQITLLKAACLDILILRICTRYTPEQDTMTFSDGLTLNRTQMHNAGFGPLTDLVFAFANQLLPLEMDDAETGLLSAICLICGDRQDLEQPDRVDMLQEPLLEALKVYVRKRRPSRPHMFPKMLMKITDLRSISAKGAERVITLKMEIPGSMPPLIQEMLENSEGLD
As to B1, in test [7], the “stoichiometry N” value was determined as 1.

B2: fluorescent peptide CoRNR2 of N-CoR (peptide)
peptide: fluorescein-DPASNLGLEDIIRKALMGSFD
Molecule B2 had a Kd in test [8] of 22.5 µM.
